Test: soluble on expression in E. coli; label from the status in PepcDB or PDB records

**Q.** For “MGSDKIHHHHHHMPSWFTNVQLGFDMATSLTIVGAAVTWVIREKKQAEAEKVRGINQQVRSTSLKKVQDVLFEMEDKFSVLINETQTYENMIDNRVRKVNDQLDFSRLNLAIKRDDQFLIKAIDRLQAIREELGQFYELIQVRRYSLIPLLDAIEEGDKYIGVFQQNIDEVGDAYNQVTSGNVSLLKELEAVISMLNKQFGDELVDVSDEVKKELFQKISTDETFMKPIQSIIYDEDYFYWVQRFVPAGREDDYLEKVVRPSKIEDKELCSEVMVHFILALIGKNHELISQVLRTASGSVMKARIECKDILISLSAISHKLVMDNNGETLEKVIAKYESEEYFGRNVTIR”, which “soluble on expression in E. coli” value is on record?
**A.** Its value is “not soluble”.

**Q.** With “LFLPNTRAYRRYNRSVWAVRGSTRPQWQPPPKFQHAKCMSMRLAHRLQILLDDECHRRITAVARERGVPVATVVREAIDRGLVSPAGRRKSAGRRLLDAADMSVPEPRELKQELEALRARRG” as the sequence, how does the “soluble on expression in E. coli” value read?
**A.** Its value is “not soluble”.

**Q.** With “MLNVEPSFAEELRSSGVSLSATYLGSVPVVESINVMVSEMRVQVVSECIQHVAATVGVTAAREINPVVSRVIGEVKKENFPVDINISSKMIKIIKQSRLIQRHPFSFFSFGAQGQKGTDTELMFGYIAKNKDGTDRRCHVVFIEDVHKLIDVLTTAINVNTFDAQANASTSNDGFTVPAPPMRHRSSLHRQSFVSNCRAPTVTEDVVGKVWYHGNLSREDAQALLKTEGDFLVRQSDHTPGKYVLSGRTAENEHKHLILLDNHNRVRTRDRTFSNISELIDYHVNNGMAVRSEGRDRETSLNLIRPVPCPGSDDIE” as the sequence, how does the “soluble on expression in E. coli” value read?
**A.** Its value is “soluble”.

**Q.** With “MAHHHHHHMDPSAFGMMAGRGMGRQTEVRDARDTAETIQISSIALLKMLIHGRAGVPLEVMGLMIGEEIDDYTIRVADVFSMPQTATGQSVEAVDPEYQVHMLDKLKLVGRHENVVGWYHSHPGFGCWLSSEDVMTAAGYENLTPRSVSVVVDPIQSVRGKVVIDAFRTIPQEIMAMRAMGEYVEPRQVTSNIGFLSKPSAVALSHNLNRQYYNLPVTFRKKNHELRLLLNVYRKGWQEGFKLEKAKVYQRETRTSIRELISLSKQAEKYITQGRDEDDLGNVGQINAMSHLQMEAENVIHRNLNQSIGAMINAVVF” as the sequence, how does the “soluble on expression in E. coli” value read?
**A.** The value was “not soluble”.

**Q.** With “SEITETLCIFIKTPYISEWSLNNAIINAKKYNLNLKVIKIDKIIKNVPERCYLCKKMFFEILTKEKEKYNYDVVVDGTNYDDLFEDRPGLRAKEEFNIGSPFADFKIGKKDILEIAKELNINIPPKET” as the sequence, how does the “soluble on expression in E. coli” value read?
**A.** The value was “not soluble”.

**Q.** Which “soluble on expression in E. coli” value does the source give for “MGSDKIHHHHHHMNRAREINYLNSIALHQPFGIVGVSGETGIGKTTVLNFVNPEGVFTVRVNISLRDSMESILYDLLHSLALSLEKVEEVSDLAKEVRKWITDEVSTIKGFSLGVSFGVNASLTHEKSIRPRFNFFKAREKLGELIKQTVQRKGKFLLIIDELDKEKKEDVLRVIDSIKNFIIMEDFVVILSLPFSIYREYAADRLRWNEAGNLENIFTDIVFVEPLKKLEIKELIIKRLGSYIELIEDGVLDIVADFSDGNPRDGLWILTKAIYDNIHKELLSKEDLINTINRTISEYTGLTLNLTENQKKAIRVLRGSVYSREKIIETLQKEGFKRTTAYSVMDQLLQKRILLVEKEGYRISGKFSYMEI” here?
**A.** Its value is “not soluble”.

**Q.** With “MAHHHHHHMNVRKSILNYLILHSSIVRRNHNKSYQKECRQSGSLNWMEKNRKMKSVRPNYFVCIPLSGNKGLVEELIKVQNHVASKFEMLKECAIERNKFHISLLILHVKKSQMVASKEAFREAIEEIKKLNHQAISFDTLETFRNDVLYAGLKEDSRKYVVNMIALLRDAFTKRDIHIFSNHKGKEEAREKTRPSGAIDKGIGNRTDKGAAVPSTYQCSEKEQITPHVTIMKNSYLRKIYANRKPQIFADYYADFNLSKLQTERVVPNKIQFLEMDTDSATSYYRVIDECGLP” as the sequence, how does the “soluble on expression in E. coli” value read?
**A.** Its value is “not soluble”.

**Q.** For “MGSDKIHHHHHHMIIDINMHHLPEDLFTNEKILDGFLSTAPRSYGEIASLGTIPETGKRQIILEKPKGYQNLNYVEGDYSLEAKLQAMDDNGVDKAILRVPVWQEWLKVDTCKIVNDNAAEMCKRSAGRLYATACVPPWGGKDNLYELERCVKDLGMVGVQLACHYGQLYLDDEAFKPYMKVLNELNVPVVVHHTPLPVYWQSVYEYTNLRRELGRIIDQATAVGRELFSGMFEEFPNLKFIHTMFGGNWFANYNLLMPHKGKKEEAMLRLDISESDRIKMYLKNNIYFDMTHPASWGKDQVECAIKVCGADHVLFGSSFPVFYNWMSQGIECVKSLDITEKERELITSGNAIRLFKLDV”, which “soluble on expression in E. coli” value is on record?
**A.** The value was “not soluble”.

**Q.** Which “soluble on expression in E. coli” value does the source give for “MGSDKIHHHHHHMSDITSKVSLTNVAADNTVSSEQAKDINSIGQDLGIDMMASLQQAPFDEMLIREYLLDNPDFFNRYPELLVAMRVPHAERGAVSLVERRQELLRQRVSQLEEEITSLMNIATHNEKIFKFNTELSFKMLASQDLGELRLVLSEGLKNEFGFSHVRLITVHDIDSELAKIWRHRVQSGYYFGRLTQSESKRLFGSEVGSVALTKLSDENGQVIFAIASNDPTHFHPDMDSLLFSQLRRLLDHMLPKM” here?
**A.** Its value is “not soluble”.

**Q.** With “MSLSGLPESTLRYYEQIGIIDPIARDPSSGHRVYSDKDIESLTTIACLAATGMPLESMREYLKNRFDGPEGARRQIELLDAQSLRLAANAEALRIQQAYVSLKSLYWRAIAEGHEDEANRILEENKDVIENVKKQPGKGAIAREGHHHHHH” as the sequence, how does the “soluble on expression in E. coli” value read?
**A.** The value was “soluble”.

**Q.** Which “soluble on expression in E. coli” value does the source give for “AAIAEKDLGNAAYKQKDFEKAHVHYDKAIELDPSNITFYNNKAAVYFEEKKFAECVQFCEKAVEVGRETRADYKLIAKAMSRAGNAFQKQNDLSLAVQWFHRSLSEFRDPELVKKVKELEKQLKAAERLAYINPELAQEEKNKGNEYFKKGDYPTAMRHYNEAVKRDPENAILYSNRAACLTKLMEFQRALDDCDTCIRLDSKFIKGYIRKAACLVAMREWSKAQRAYEDALQVDPSNEEAREGVRNCLRSNDEDPEKAKERSLADPEVQEILRDPGMRMILEQMSNDPGAVREHLKNPEIFQKLMKLRD” here?
**A.** The value was “not soluble”.

**Q.** Which “soluble on expression in E. coli” value does the source give for “MSLKQQVPLSTATVSMVHSVPELMVSSEQAEQLGREDQQRLHRNRKLVLMVDLDQTLIHTTEQHCQQMSNKGIFHFQLGRGEPMLHTRLRPHCKDFLEKIAKLYELHVFTFGSRLYAHTIAGFLDPEKKLFSHRILSRDECIDPFSKTGNLRNLFPCGDSMVCIIDDREDVWKFAPNLITVKKYVYFQGTGDMNAPPGSRESQTRKKVNHSRGTEEGHHHHHH” here?
**A.** Its value is “not soluble”.

**Q.** For “MGSSHHHHHHSSGLVPRGSHMLPKPDQINQIIVLLNIYHGKKKPSEIAREMDITLQGVIYHMKNLRRDGLIDEENRITKKGFDFLYRQLSDMREFITSNILDLDSLMVWEAIAAEDITAGSTVHLRMKGGYLYAFLSGGGATGRAVNDSQAGGLVGITNLSGLIDVNFGKLSIIVIPDSIDGGISERLKKAAADLSPALFAAMGEAGYVALKNIGIEPDIEYSALQAAFEASVRGQNVVLVTSRRRLHYSMAEIPQLENRYNPVKANITDLS”, which “soluble on expression in E. coli” value is on record?
**A.** The value was “soluble”.

**Q.** For “MAHHHHHHMFHGMNKTNTWAVILSSSRYFFNLRHTTNALAMYHLCRKHGMDDDHILVFLSDSYACDPRKPNPATIYGAPAQAEQPNLYGCNIRVDYASYDVGVRRFLGVLQGRYDENTPPSRRLDTDENSNIIIYAAGHSAEKFFKFQDSEFMSSTDIADTLMMMWEQRRYRKLVFLVDTCRALSLCLEIKAPNVVCLASSEAHLDSYSHHLDPPSGFTVITRWTFEFLEVLKDSKCRPENGEVTLLQKSFYDFNYGPERLSLPQPLSEPAHFDAVNRPNAVREWKMDEFFCEQDRDKIPVELRYDLF”, which “soluble on expression in E. coli” value is on record?
**A.** Its value is “not soluble”.

**Q.** With “MSDHENTGENTSEYQYKQPPQKSIDELLNADKEDESLKVYKAKLLGQGTVIVDEKNPLRVIVRSVELLINGKTAQSFDLSDPAKLVNSDLSVSIKEGSNYRLSFAFHVQREITSGLHYKHKVKRSGITVENEKYMMGSYAPKLEIQEYKSPNEEAPSGMMHRGKYKVYSKITDDDNNVYLDWQWTLHITKE” as the sequence, how does the “soluble on expression in E. coli” value read?
**A.** Its value is “not soluble”.

**Q.** Which “soluble on expression in E. coli” value does the source give for “MGSDKIHHHHHHMTIDPIKSTTLAQFDAAEQTALAQLALKVQHAFVTGAGGFLGKAICLRLLAAGIKVTGFARGHYPELEALGVVMLQGDLVNKDQLQQAMQGCDIVFHVASKAGVWGDRDSYFCPNVKGAANVIAACKTLKINKLVYTSTPSVTFAGQDESGIDESTPYATSFLNYYAHSKAIAEKMMLDANQVGDVSVENTAVTQVTQVTQATTATISDNNLATTQVAIPNTSQVTAPYALKTVALRPHLIWGPGDPHLVPRVLARCRLDKLKLVGHEDKLVDTIYIDNAAYAHVLAALELCQAKPKCQGKAYFLSNDEPITMAKMLNLILACDALPPVTKRVPQSVAYVAGAVLETVYFLLKKQEEPMMTRFVARQLSCSHYFDISAAKRDLGYRALVSINEGMARLKASL” here?
**A.** Its value is “not soluble”.

**Q.** Which “soluble on expression in E. coli” value does the source give for “MGSDKIHHHHHHMTVTILHEANSIDTDYVKRARLISDKFLELIILPTEQCNFRCTYCYEDFSIGRMQPETIAGIKAILDKRCPNLSYLNLAWFGGEPLVAKNIVLDISEYALSLVSKYPHLHYSSNMTTNGYLLDLNTASALANVGVTKYQISLDGPREIHNQSRIRADGKSTFERIWTNLLAIRDSSLPIYINLRLHFTIDTVKLIDPLLEDIKREFLPDSRFSVYFKSIERLGGTNDASIKIYSESEKNTAIKTLEAKLFGEKLQSPQNATLPDDYVCYASRPNSLVIRANGSVGKCTVALSDERNNIGTLRTDGRLDLIPGRFAPWVRGIQTLDPDVLGCPLVSLPTSDEIATNLQTKALAV” here?
**A.** Its value is “not soluble”.

**Q.** With “MAHHHHHHMLRRVLSRGPLPQSLSVGPTSKLTVNKGKLAKSRGVHVHFLTIAECAAAAGDASAPIPPGFTGKAGEVDFQTLWTTAQDPATAESVLRKSGRKAAGARRAAEKPAELVAGMGAHSTVRDYRLAVTAAVRKAKMCNAAWVSLHPPKQDVFTMTDPYHPPQRLKSHEMVEKTAIFAVTGAYQYDRLKSGTLASKDSAQTGRTRARRAESRAKPPAAPQPPMELVVASSNAQAVRAGEVIGHCVNEARNLGNLREDEGVPEFYAEWAKKYMIPEGIKVRKVLRGQQLEEAGLHLMYNVGRGSRYEPYLVVLEYIGNPRSSATTAIVGKGVTFDCGGLNIKPYTSMETMHSDMMGAATAFCTLKAIAKLQLPINVVAAVGLVENAIGPESYHPSSIITSLKGLTVEVLNTDAEGRLVLADVLTYVQKYAPLDKKPTRIIDLATLTGAIIVGLGSRRAGLFSPSAMLANSLMAAGTQCGEELWPMPIGDEHKDMMKGGIADLINAAPGRQAGSCTAAAFLSNFVEPEVQWAHLDIAGVADVGDKPKGYEPAGVTGFGVQLLVDFLRHNKP” as the sequence, how does the “soluble on expression in E. coli” value read?
**A.** Its value is “not soluble”.

**Q.** With “MSLAYQALYRVFRPQSFQDVVGQEHVTKTLKNAIVQNKTSHAYLFSGPRGTGKTSAAKIFAKAINCEHGHDGEPCNECEICKGTTDGSIPDVLEIDAASNNGVEEIRDIREKVKYAPTVAKYKVYIIDEVHMLSTGAFNALLKTLEEPPKHVIFILATTEPHKLPLTIISRVQRFDFKRITTQDIIGRLKFILEEEKIPYDEKALMIVARAAEGGMRDALSLLDQVISYGSEEVTVEDALEITGSVAQNLLTKLVSAAFDGDAAEAISTLTALLAEGKDPVRLVEDLLVFFRDVLLYQKAPNLEETLERALIDDDFVALAKRADSLKVYEFVKILNTAQQQMRFSNHPGIYVEVALIQLTQAGEGHHHHHH” as the sequence, how does the “soluble on expression in E. coli” value read?
**A.** The value was “soluble”.

**Q.** Which “soluble on expression in E. coli” value does the source give for “MGLAQSHSRTPSRDPLPNDHQVMDVYEESGPRRGRKRKAAKGSEIEMKKVAKLNTCAYVYQKLFLQGENSDIVLAACGREWRVHKLYLKQTKFFESMFDGLWTESNSGRVQMEITDPNIDADGLNSVLGSLYHNEIEIDLDKIEGTVAAASYIVLDSVTDRCSEMMIEALSTKNAVRFYDVSTKYGLEKVREKSMEVLLHQFWKIMTDREKLNEVDRQLFVTLLNSPNLLIIEGEFDLYKVVKSWIYMREVPDCCKDDSPETFTQNASKFFKESKTSMFIKYADIFASLRIEQFLTCSETIKTVKSDALIPLSIVDEMTSALWSSLLENEESPKTLEMDDDEFFKRCIRLGRSLDSFPKCWRWIGFNFGVDLLLHVNDYSVCIKRNCLNQKAPYSVNLKSKHVLHYRLVICDSNGQILYDSGKTTWEMKPDEARTIYRMSEDLATQISVHFQYLIHQPICSTGHYVNKYLDDQNSTDDEDDEEEEDDDGDDEEDSS” here?
**A.** The value was “not soluble”.

— the DeepSol protein solubility set
